# Experimental data from US20020127227A1 (GlaxoSmithKline, published 2002).
# B1: murine monoclonal antibody 16E10 (antibody, V domains shown)
# VH: QVQLKESGPGLVAPSQSLSITCTVSGFSLTGYGVNWVRQPPGKGLEWLGMIWVDGGTDYNSALKSRLSISKDNSKSQVFLKMNSLQTDDTARYYCARGGSSLLGFAYWGQGTLVTVSA
# VL: DIQMTQTTSSLSASLGDRVTISCRASQDISNYLNWYQQKPDGTVKLLIYYTSRLHSGVPSRFSGSGSGTDYSLTISNLEQEDIATYFCQQGNTLPRTFGGGTKLEIKR
# modifications: N-terminus of the heavy chain blocked with pyroglutamic acid
# notes: The rest is mouse IgG with a kappa light chain (amplified with mouse IgG CH1 and C kappa primers); also called mAb 16E10; ATCC 16E10
# Target: T1, recombinant human RHAMM (receptor for hyaluronic acid mediated motility), GST tag removed (human, UniProt O75330-3 1-725, limits assumed)
# T1 construct: Any residues left by the linker after thrombin cleavage are not described; The BIAcore text says only 'RHAMM' and 'soluble monomeric RHAMM'; also called soluble monomeric RHAMM
# T1 sequence (looked up): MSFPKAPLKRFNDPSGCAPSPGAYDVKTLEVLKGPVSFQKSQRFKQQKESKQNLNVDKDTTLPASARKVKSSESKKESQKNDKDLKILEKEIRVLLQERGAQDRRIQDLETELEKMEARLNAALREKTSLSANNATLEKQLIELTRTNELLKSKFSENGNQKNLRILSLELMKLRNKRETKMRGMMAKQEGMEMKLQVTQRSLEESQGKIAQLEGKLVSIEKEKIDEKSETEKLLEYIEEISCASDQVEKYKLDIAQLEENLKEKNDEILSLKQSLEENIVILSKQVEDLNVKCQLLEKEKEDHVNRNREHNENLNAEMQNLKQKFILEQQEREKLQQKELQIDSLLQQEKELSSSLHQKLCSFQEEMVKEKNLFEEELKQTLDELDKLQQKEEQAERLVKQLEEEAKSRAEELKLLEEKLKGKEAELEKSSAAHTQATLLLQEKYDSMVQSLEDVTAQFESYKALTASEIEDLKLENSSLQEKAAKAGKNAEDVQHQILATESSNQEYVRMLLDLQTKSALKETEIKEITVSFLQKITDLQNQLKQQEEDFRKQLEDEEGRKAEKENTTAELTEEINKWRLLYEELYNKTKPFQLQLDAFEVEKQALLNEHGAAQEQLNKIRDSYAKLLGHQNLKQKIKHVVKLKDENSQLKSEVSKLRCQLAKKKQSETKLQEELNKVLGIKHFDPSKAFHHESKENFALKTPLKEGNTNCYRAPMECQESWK
# Assay: BIAcore SPR, mAb captured on rabbit anti-mouse IgG Fc, RHAMM injected
# Protocol: The affinity of the purified mAbs was measured in the BIAcore. Using a flow rate of 10 ul/min, the mAb (diluted in HBS buffer) was injected over a rabbit anti-mouse IgG Fc surface, followed by buffer flow and the RU recorded. RHAMM diluted in HBS buffer was then injected for 180s followed by buffer flow for 150s and regeneration of the sensor chip surface with an injection of 0.1 M phosphoric acid. BIAcore software was used for association and dissociation-phase analysis. The murine monoclonal antibodies bound to soluble monomeric RHAMM. The on-rates (kₐₛₛ) and off-rates (kdiss) were calculated.
binder,measurement,value
B1,Kd,470 pM
